Assay: yeast display, Sf9 membrane polyspecificity reagent, FACS + sequencing; frameworks hold sequencing errors
How it was run: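 In a synthetic yeast display library (Saccharomyces cerevisiae BJ5465), nanobody expression was induced with galactose for 36–48 hours. FACS gates were set low and high (top ~1%) using anti-HA fluorescence for expression and streptavidin fluorescence for binding of the Sf9 membrane reagent. Each polyreactivity label is drawn from the gate of origin.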

Row | Sequence | polyreactivity (PSR sort gate)
1 | QVQLVESGGGLVQAGGSLRLSCAASGFIFDDYARGWYRQAPGKERELVADIDYSGGSRYYADSVKGRFTISRDNAKNPVYLQMTSLKPEETAVYYGTAYYGILYYLLDYWGQGTQVTVSS | high polyreactivity
2 | QVQLVESGGGLVQAGGSLRLSCAASRSIFSYNAMGWYRQAPGKGREFVAAITSSGTRKYYADSVQGRFTISRDNAMNTVYLQLNSLKPEDTAVYYCAADLRYDYWGQGTQVPVSS | high polyreactivity
3 | QVQLVESGGGLVQAGGSLRLSCAASGSTFVPYAMGWSSQAPGKERELVADISWSGGSTYYADSVKVRFTISRDNAKNTVYLQMNSLKPEDTAVYYCAARSIYKSKYDYWGQGTQVTVSS | high polyreactivity
4 | QVQLVESGGGLVQAGGSLRLTCAASGSTFRWYAMGWYRQAPAKERELVAAIRSAGSTDYADSVKGRFTISRDNAKNTVYLQINSLKPEDTAVYYCAAYFRYRSSRYGYWGQGTQVTVSS | high polyreactivity
5 | QVKLEESGGCLVQAGGSLRLSCAASGFTFEENAMGWYRQAPGKERELVAAINWSGGNTYYADSVKGRFTISRDNAKNTVYLQMNSLKPEDTAVYYCAADSPRYYYWVGPYYGYDYWGQGTQVTVSS | high polyreactivity
6 | QVQLVESAGGLVQAGGSLSLSCAANGFTFTYYTMGWYRQAPGKERELVAAITENGGSTYYADSVKGRFTISRDNAKNTVYLQMNSLKPEDTAVYYCNARVWDYGGHGYDYWGQGTQVTVSS | low polyreactivity
7 | QVQLVESGGGLVQAGGSLRLSCAASGSIFLAYAMGWYRQAPGKEREFVAAISFSDGSTYYADSVKGRFTISRDNAKNTVYFQMNSLKPEDTAVYYCNKGASPDDYDYWGQGTQVTVSS | low polyreactivity
8 | QVQLVESGGGLVQAGGSLRLICPASGRIFRYYAMGWYRQARGKERELVAGITTGGGSTYYADSVKGRFTISRDNAKNTVFLQMNSLKPEDTAVYYCAARYYTTYYCGQGTQVTVSS | high polyreactivity
9 | QVQLVESGGGLVQAGGSLRLSCAASGRTFYPYAMGWYRQAPGKERELVARITSGGSTYADSVKGRFTISRDNAKNTVYLQMNSLKPEDTAVYYCNTDGYLLSRYPYSVQLYEYWGQGTQVTVSS | high polyreactivity
10 | QVQIVESGGGLVQAGGSLRLSCAASGSTFYSYAMGWYRQAPGKERELVAAIDWSGDNTNYADSVKGRFTISRDNAKNTVYLQMKSLKPEDTAVYYCAAVYSYYRLYAYPAYYYWGQGTQVTVSS | low polyreactivity
11 | QVQLVESGGCLVQAGGSLSLSCAASGFIFDHNAMGWYRQAPGKERELVAAITWRGDSTYYADSVKGRFTISRDTAKNSVYVQMNSLKPEDTAVYYCNADAILVYYGKLDYWGQGTQVTVSS | low polyreactivity
12 | QVQLVESGGGLVQAGGSLRLSCAASGRIFKVYTMGWYRQAPGKERELVATITRSGTSTYYADSVKGRFTISRDNAKNTVYLQMNSLKPEDTAVYYCARRVGYKFSYDYWGQGTQVTVSS | high polyreactivity
13 | QVHLVESGGGLVQAGGSLRLSCAASGRTFINYAMGWYRQAPGKERELVAAITTGGRTNYADSVKGRFTISRDNAKNTVYLQMNSLKPEDTAVYYCAADRYYWGRYTLNYWGQGTQVTVSS | low polyreactivity
14 | QDQHVESGGGLVQAGGTLRISCAASGFTFYVYAMGWYRQAPGKEMELVASISKSGGSTYYADSVKGRFTITRDNAKNTVFLQMNSLKTVDTAVYYCAVYDKRSCYRGGHRYNSCGQGTQVTVSS | high polyreactivity
15 | QVQLVESGGGLVQAGGSLRLSCAASGRTFWGYGMGWYRQAPGKERELVATISSGGSTYYADSVKGRFTISRDNAKNTVYLQMNSLKPEDTAVYYCAARPPRTYWRYQSDYWGQGTQVTVSS | high polyreactivity
16 | QVQLVESGGGLVQAGGSLRLSCAASGSTFHTYGMGWYRQAPGKERELVSAIDLSDGSTYYADSVKGRFTISRDNAKNTVYLQMNSLKPEDTAVYYCNADYFPKPYRPDDYWGQGTQVTVSS | low polyreactivity
17 | QVQLVESGGCLVQAGGSLRLSCSASGLTFRYYAMGWYRQAPGKESELVAAITRRGSTYYADSVKGRFTISRDIAKNTVYLQMNSLKPEDSAVYYCATVTGFHSSPLRDLDYWGQGTLVTVSS | high polyreactivity
18 | QVQLVESGGGLVQAGGSLRLSCAASGSIFRAYAMGWYRQAPGKERELVADISIGDNTYYADSVKGRFTISRDNAKNTVYLQMNSLKPEDTAVYYCAAVSDDVPWYWPQYTILDYWGQGTQVTVSS | high polyreactivity
19 | QVQLVESGGGLVQAGGSLRLSCAASGRTFNYYAMGWYRPAPGKERELVAAISGSGGRTYYADSVKGRFTISRDNAKNNVYLQMNSLKPVDTAVYYCNADVGKYPYAHTYWARRYYYWGQGTQVTVSS | high polyreactivity
20 | QVQLVESGGGLVQAGGSLRLSCAASGSIFDPYAMGWYRQAPGKERELVAAIRWGGGTTYYADSVKGRFTISRDNSKITVSLQMNSLKPEDTAVYYCAASWDWYDYWYDYWGQGTQVTVSS | high polyreactivity
21 | QVQLVESGGGLVQAGGSLRLSCAASGSTFSNYAMGWYRQAPGKERELVAVITRGASTYYADSVKGRFTISRDNAKNTVYLPMNSLKPEDTAVFYCNVPIRGQLVHTYPYDYWGQGTQVTVSS | high polyreactivity

Row | Sequence | polyreactivity (PSR sort gate)
22 | QVQLVESGGGLVQAGGSLRLSCAASGSTYRTYPMGWYRQAPGKERELVASISYRSGRTYYADSVKGRFTISRDNAKNTVYLPMNSLKPEDTAVYYCNSRMYGVISRMDYWGQGTQVTVSS | high polyreactivity
23 | QVQVVESGAGLVQAGGILRLRCASSGFILYPNAMGWYRQAPGKERELVAAITESDGITYYADSVKGRFTISRDNAKNTVYLQMNSLKPEDTAVYYCNTGFSYTYDYWGQGTQVTVSS | low polyreactivity
24 | QVQLVESGGGLVQAGGSLRLSCAASGRIFRYYAMGWYRQAPGKERELVATISGRGGSTYYADSVKGRFTISRDNAKNTVYLQMNSLKPEDTAVYYCNTVSTRYIYDYWGQGTQVTVSS | high polyreactivity
25 | QVQLVESGGGLVQAGGSLGLSCAASGLTFSRYAMGWYREAPGKEWELVASISQGGGSTYYADSVKGRFTISRDNPKKTVYLQMNSLKPEDTAVYYCIRLTIGSSSYDYWGQGTKVTVSS | high polyreactivity
26 | QVQLVESGGGLVQAGGSLRLSCAASGSSFGSNAMGWSRPAPGKERELVAAITGGDVSTYYADSVKGRFTISRDNAKNTVYLQMNSLKPEDTAVYYCNAEYARPAMDYWGQGTQVTVSS | low polyreactivity
27 | QVQLVESGGGLVQAGGSLRLSCAASGSTFVSYAMGWYRQAPGKERELVAAITWRGDSTYYADSVKGRFTISRDNAKNTVYLQMNSLKPEDTAVYYCAADGRSWRYYSPYYYWGQGTQVTVSS | low polyreactivity
28 | QVQLVESGGGLVQAGGSLRLSCAASGSIFSSNAMGWYRQAPGKERELVAAISKSGSRTYYADSVKGRFTISRDNAKNTVYLQMNSLKPEDTAVYYCNAVGVSVYYAIAYDYWGQGTQVTVSS | high polyreactivity
29 | QVQLVESGGGLVQAGGSLRLSCDASGSTFPKYAMGWYRQAHGKERELVAAITSSGGRTFYADSVKGRFTISRDNAKNTVYLQMNSLKPEDTAVYYCAAYYYSWSGAFIYDYWGQGTQVTVSS | high polyreactivity
30 | QDQLVESGGGLVQAGGSLRLSCAASGLTYYVYSMGWYRQAPGKERELVARITWSGGSTYYADSVKGRFTISRDNAKNTVYLQMNSVKAEDTAVYYSAAEWSEESDYWGQVTQVTVSS | low polyreactivity
31 | QVQLVESGGGLVQAGGSLRLSSAASGSTVPRYAMGWDRQAPGKERAFVAVIWSGGSTYYAVSVKGRFTISRDNAKNTVYLQMNSLKPEDTAVYYCAAEYHTLSKYSGYATHDYWGQGTQVTVSS | low polyreactivity
32 | QLQLVESGGGLVQAGGSLRLSCAASGSTFYLYDLGWYIQAPGKESELVAAITSSGGSTYYADSVKGRFTISLDNAKNTVYLQMTSLKPEDTAVYYCAARYRGWVYSYDYWGQGTQVTVSS | low polyreactivity
33 | QVQLVESGGGLVQAGGSLRLSCAASGYTFPLYAMGWYIQAPGKETELVADINIGGASTYYADSVKGRFTISRDNAKNTVYLQMNSLKPEDTAVYYCAKEYYDGYFPTLDYDYWGQGTQVTVSS | low polyreactivity
34 | QVQLVESGGGLVQAGGSLRLSCAASGSIFTPNVMGWYRQAPGKERELVAAISQSGGSTFYADSVKGRFTISRDNAKNNVYLQMNSLKPEDTAVYYCAADPFYYFPSPFDYWGQGTQVTVSS | low polyreactivity
35 | QVQLVESGGGLVQAGGSLRLSCAASGSIFIVNAMGWNRQAPGKERELVAAISWSGGSTYYADSVKGRFTISRDNAKNTVYLQMNSLKPEDTAVYYCAAKYTLPFRDVKYYSWGQGTQVTVSS | high polyreactivity
36 | QVQLVESGGGLVQAGGSLRLSCAASGNIFSAYTMGWYRQAPGKERELVAAITGGTSTHYADSVKGRFTISRDNAKNTVYLQMNSLKPEDTAVYYCAADQGRYGIIGWDDYWGQGTQVTVSS | low polyreactivity
37 | QVQLVESGGGLVQAGGSLRLICAASGRTFRFYAKGWYRQAPGKERELVAAITSGGSTTYAYSVKGRFTISRDNAKNTVYLQMNSLKPEDTAVYYCNADRARAYDYWGQGTQVTVSS | high polyreactivity
38 | QVQLVESGGGLVQAGGSLRLSCAASGNTFYPYAMGWYRQAPGKERELVAAITSSGGSTYYADSVKGRFTISRDNAKNTVYLQMNSLKPEDTAVYYCAADPDWYSPFKYCYWGQGTQVTVSS | low polyreactivity
39 | QVQLVESGGGLVQAGGSLRLSCAASGSIFDYYAMGWYRQAPGKERELVAAISNGRTTNYADSVKGRFTISRDNAKNTVYLQMNSLKPEDTAVYYCNADSALYDKAVIYSEYDYWGQGTQVTVSS | low polyreactivity
40 | QVQLVESGGGLVQAGGSLRLSCAASGSTVYVYTMGGYRQAPGKERELVAANSLSGDNTYYADSVKGRFTISRDNAKNTVYLQKNSLKPEATAVYYCNADIIGFPADYLYDYWGQGTQVTVSS | low polyreactivity
41 | QDQLVESGGGLVQAGGSLRLSCAASGRTFIYYVMGWSRQAPGKERELVAAISLRGSSTRYADSVKGRFTISRDNAKNTVYLQMNSLKPEDTAVYYCAARPRLSRYDYWGQGTQVTVSS | high polyreactivity

Source: the nanobody polyreactivity screen of Harvey et al. (2022)
